In paper PMC3441419, “The Redox-Sensing Regulator Rex Modulates Central Carbon Metabolism, Stress Tolerance Response and Biofilm Formation by Streptococcus mutans”:

T1: rRex (Streptococcus mutans UA159?) (UniProt Q8DU91)
T1 sequence: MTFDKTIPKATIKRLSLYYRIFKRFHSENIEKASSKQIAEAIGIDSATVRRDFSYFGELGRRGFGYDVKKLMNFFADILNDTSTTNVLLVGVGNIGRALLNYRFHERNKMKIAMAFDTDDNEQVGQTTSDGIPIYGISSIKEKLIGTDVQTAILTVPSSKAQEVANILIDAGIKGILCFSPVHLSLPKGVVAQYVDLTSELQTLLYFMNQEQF

T2: rRex (UniProt Q8DU91 1-213)
T2 sequence: T1 sequence

B1: adhE Rex-box oligo 148Fw/148Rv (dsDNA)
DNA 1: ATTTTTTTGTGAAAAGGGTTACAATGACAAG
DNA 2: CTTGTCATTGTAACCCTTTTCACAAAAAAAT
B2: mutated adhE Rex-box oligo m148Fw/m148Rv (dsDNA)
DNA 1: ATTTTTAACAGTAAAGGGTTACAATGACAAG
DNA 2: CTTGTCATTGTAACCCTTTACTGTTAAAAAT
B3: adhE1 cold oligo (dsDNA)
DNA 1: TTTTGTGAAAAGGGTTACAATG
DNA 2: CATTGTAACCCTTTTCACAAAA

Experiments:
[1] = target: T1, rRex (Streptococcus mutans UA159?); assay: EMSA; conditions: 20 mM Tris pH 8.0, 1 mM EDTA, 75 mM KCl, 2 mM DTT, 10% glycerol, 10 min at room temperature (+15 min after NAD+/NADH); 5% native PAGE
rRex [2] = target: T2, rRex; assay: EMSA; 20 mM Tris pH 8.0, 1 mM EDTA, 75 mM KCl, 2 mM DTT, 10% glycerol, 10 min at room temperature (+15 min after NAD+/NADH); 5% native PAGE; conditions: protein: recombinant; tags: N-terminal His (pQE30); blunt
rRex [3] = target: T2, rRex; assay: competition; unlabeled competitor against biotinylated adhE1, dose-dependent; 20 mM Tris pH 8.0, 1 mM EDTA, 75 mM KCl, 2 mM DTT, 10% glycerol, 10 min at room temperature (+15 min after NAD+/NADH); 5% native PAGE; conditions: protein: recombinant; tags: N-terminal His (pQE30); blunt

| Molecule | binding [1] | binding result (rRex [2]) | other results |
| --- | --- | --- | --- |
| ATGACAGTTCCTCGCATTTTTAATTTATGTTATAATTATAAGTGAAAAACATCACATTTGAAAAGCCTTACAAATATCTTAAAAAATGACTTTTTATGACTTTTAGATGGGAGGTTTGCTTAGT (double strand) [frdC promoter] | binds |  |  |
| ACAAGCCCATACTGAGTTTGGACATTAAAGCTCAGCAGGGCTATGATTATGATGTCATTATCATCGGCGGCGGTGTTTCAGGTGTGACTCTAGCC (double strand) [gshR promoter] | binds |  |  |
| B1 |  | binds |  |
| B2 |  | no binding |  |
| B3 |  |  | binding result (rRex [3]): binds |
